Values of other authors as cited in publication PMC9974451.

Target: Ubc9 (Homo sapiens) (UniProt P63279)
Assay: differential scanning fluorometry

importin 13, sequence (O94829 whole entry): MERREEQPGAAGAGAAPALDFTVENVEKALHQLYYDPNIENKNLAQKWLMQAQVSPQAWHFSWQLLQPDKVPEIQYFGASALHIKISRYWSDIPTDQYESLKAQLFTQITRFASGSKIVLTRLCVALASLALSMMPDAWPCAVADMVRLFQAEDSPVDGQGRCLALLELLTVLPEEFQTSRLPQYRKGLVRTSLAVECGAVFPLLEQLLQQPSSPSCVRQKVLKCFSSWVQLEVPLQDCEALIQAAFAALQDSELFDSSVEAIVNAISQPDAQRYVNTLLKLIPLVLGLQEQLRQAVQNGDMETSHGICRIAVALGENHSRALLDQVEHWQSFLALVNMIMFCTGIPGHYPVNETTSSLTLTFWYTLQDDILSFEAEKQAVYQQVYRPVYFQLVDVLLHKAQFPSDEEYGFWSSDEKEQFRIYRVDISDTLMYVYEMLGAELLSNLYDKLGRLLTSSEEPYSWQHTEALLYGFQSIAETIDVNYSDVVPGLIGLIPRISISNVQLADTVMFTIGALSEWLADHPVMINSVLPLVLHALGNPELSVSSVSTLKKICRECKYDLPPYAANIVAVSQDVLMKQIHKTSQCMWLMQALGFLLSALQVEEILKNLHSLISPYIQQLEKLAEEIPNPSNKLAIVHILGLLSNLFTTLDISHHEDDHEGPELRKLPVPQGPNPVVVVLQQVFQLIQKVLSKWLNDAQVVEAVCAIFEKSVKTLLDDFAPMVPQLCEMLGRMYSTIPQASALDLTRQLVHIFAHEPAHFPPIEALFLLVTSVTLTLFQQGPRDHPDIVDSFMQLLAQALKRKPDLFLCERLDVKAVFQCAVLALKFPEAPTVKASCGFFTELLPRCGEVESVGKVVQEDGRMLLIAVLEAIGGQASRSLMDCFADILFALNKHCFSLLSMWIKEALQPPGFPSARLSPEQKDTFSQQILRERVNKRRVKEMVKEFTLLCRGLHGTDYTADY
Ubc9 (Homo sapiens), sequence (P63279 2-158): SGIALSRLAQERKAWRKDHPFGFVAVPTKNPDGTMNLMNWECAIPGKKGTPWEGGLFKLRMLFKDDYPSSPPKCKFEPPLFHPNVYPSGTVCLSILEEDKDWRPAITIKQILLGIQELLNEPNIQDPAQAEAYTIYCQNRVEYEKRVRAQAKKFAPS

importin 13 (from UniProt O94829)
Kd: 370 nM
